How the values were obtained:
Human FGFR2 IIIb D1-3 [1] = target: T1, Human FGFR2 IIIb D1-3 (human); assay: SPR Biacore, method as Example 2
T1 construct: Extracellular domains D1-3 with C-terminal tag, made in HEK293T; also called recombinant human FGFR2 IIIb; hFGFR2
T1 chain: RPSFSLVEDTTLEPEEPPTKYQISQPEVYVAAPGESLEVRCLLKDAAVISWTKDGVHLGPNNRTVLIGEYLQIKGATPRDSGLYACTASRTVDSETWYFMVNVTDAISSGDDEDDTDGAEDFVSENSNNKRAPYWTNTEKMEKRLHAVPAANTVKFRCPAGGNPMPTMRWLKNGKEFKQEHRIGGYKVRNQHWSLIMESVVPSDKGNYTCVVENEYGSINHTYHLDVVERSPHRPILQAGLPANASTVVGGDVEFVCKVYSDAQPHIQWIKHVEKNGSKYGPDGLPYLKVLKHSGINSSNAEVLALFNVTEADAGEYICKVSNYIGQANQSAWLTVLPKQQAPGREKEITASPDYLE
Protocol: (§1) For kinetic measurements, experiments were performed in which the antibodies were immobilized to the sensor chip surface and the ability of the FGFR proteins described above listed in Table 1 to bind in free solution was determined Briefly, 50 μg/ml of anti-human Fc antibody at pH 4.75 was immobilized on a CM5 sensor chip through amine coupling at flow rate of 10 μl/minute on all four flow cells to reach 6000 RUs. […] Subsequently, 0.078-100 nM of FGFR receptors, diluted in a 2-fold series, were injected at a flow rate of 80 μl/min for 7 min over both reference and test flow cells. Dissociation of the binding was followed for 10 min using HBS-EP⁺ supplemented with 0.5 mg/ml of BSA and 10 μg/ml heparin as running buffer. After each injection cycle, the chip surface was regenerated with 10 mM glycine, pH 2.0 at 60 μl/min for 70 s.

FGFR2 D2-D3 Construct = target: T2, FGFR2 D2-D3 Construct (human); assay: HDx-MS, antigen incubated 30 min with antibody
T2 construct: E. coli made, not glycosylated; also called E. Coli. derived FGFR2D2-D3 protein
T2 chain: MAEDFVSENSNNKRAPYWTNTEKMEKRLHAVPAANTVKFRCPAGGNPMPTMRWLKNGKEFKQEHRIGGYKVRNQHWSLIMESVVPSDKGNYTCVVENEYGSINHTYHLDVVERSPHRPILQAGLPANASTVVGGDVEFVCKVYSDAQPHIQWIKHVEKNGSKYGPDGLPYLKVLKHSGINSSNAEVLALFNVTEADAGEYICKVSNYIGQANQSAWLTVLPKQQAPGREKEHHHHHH
Protocol: The epitope mapping experiments described in this example were performed on a Waters HDx-MS platform, which includes a LEAP autosampler, nanoACQUITY UPLC System, and Synapt G2 mass spectrometer. The studies were automated by a LEAP autosampler operated by the LeapShell software, which performed initiation of the deuterium exchange reaction, reaction time control, quench reaction, injection onto the UPLC system and digestion time control. The Leap autosampler was equipped with two temperature controlled stacks maintained at 25° C. for HDx reaction and maintained at 2° C. for storage of protein and quench solution, respectively. Triplicate control experiments were carried out on antigen at a deuterium exchange time of 25 minutes. HDX was quenched with quenching buffer (6 M urea and 1 M TCEP pH=2.5). […] Triplicate experiments were carried out on antigen-mAb complex just as the control experiments except in these experiments the antigen in incubated for 30 min with the antibody at 25° C. prior to deuterium exchange.

Mouse FGFR2 IIIb D1-3 [2] = target: T3, Mouse FGFR2 IIIb D1-3 (mouse); assay: SPR Biacore, method as Example 2
T3 construct: Extracellular domains with C-terminal tag
Protocol: as §1

Rat FGFR2 IIIb D1-3 [3] = target: T4, Rat FGFR2 IIIb D1-3 (rat); assay: SPR Biacore, method as Example 2
T4 construct: Extracellular domains with C-terminal tag
Protocol: as §1

[4] = target: T5, Cynomolgus monkey FGFR2 IIIb D1-3 (cynomolgus monkey); assay: SPR Biacore, method as Example 2
T5 construct: also called Cyno FGFR2 IIIb
T5 chain: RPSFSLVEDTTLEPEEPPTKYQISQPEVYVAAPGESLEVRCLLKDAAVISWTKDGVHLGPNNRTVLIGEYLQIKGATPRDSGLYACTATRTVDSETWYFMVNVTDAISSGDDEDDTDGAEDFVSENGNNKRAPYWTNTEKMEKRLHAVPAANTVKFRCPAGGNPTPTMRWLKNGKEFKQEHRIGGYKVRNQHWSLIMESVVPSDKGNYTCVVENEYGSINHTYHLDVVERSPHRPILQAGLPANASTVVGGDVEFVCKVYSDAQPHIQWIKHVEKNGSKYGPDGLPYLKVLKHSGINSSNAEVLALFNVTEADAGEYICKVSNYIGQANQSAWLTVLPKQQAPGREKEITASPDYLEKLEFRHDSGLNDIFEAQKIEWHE
Protocol: as §1

Human FGFR2 IIIb D1-3 [5] = target: T1, Human FGFR2 IIIb D1-3; assay: SPR Biacore, method as Example 2
Protocol: as §1

Mouse FGFR2 IIIb D1-3 [6] = target: T3, Mouse FGFR2 IIIb D1-3; assay: SPR Biacore, IgG captured via anti-human Fc, soluble FGFR as analyte
Protocol: (§2) Affinity of the antibodies to FGFR2 species orthologues was determined using Biacore technology using a Biacore T100 instrument (GE Systems) and with CM5 sensor chips.
as §1

Rat FGFR2 IIIb D1-3 [7] = target: T4, Rat FGFR2 IIIb D1-3; assay: as above
Protocol: as §2, §1

[8] = target: T5, Cynomolgus monkey FGFR2 IIIb D1-3; assay: as above
Protocol: as §2, §1

Human FGFR2 IIIb D1-3 [9] = target: T1, Human FGFR2 IIIb D1-3; assay: as above
Protocol: as §2, §1

T4 sequence (P21803 other isoform, or with tags, fused parts or gaps): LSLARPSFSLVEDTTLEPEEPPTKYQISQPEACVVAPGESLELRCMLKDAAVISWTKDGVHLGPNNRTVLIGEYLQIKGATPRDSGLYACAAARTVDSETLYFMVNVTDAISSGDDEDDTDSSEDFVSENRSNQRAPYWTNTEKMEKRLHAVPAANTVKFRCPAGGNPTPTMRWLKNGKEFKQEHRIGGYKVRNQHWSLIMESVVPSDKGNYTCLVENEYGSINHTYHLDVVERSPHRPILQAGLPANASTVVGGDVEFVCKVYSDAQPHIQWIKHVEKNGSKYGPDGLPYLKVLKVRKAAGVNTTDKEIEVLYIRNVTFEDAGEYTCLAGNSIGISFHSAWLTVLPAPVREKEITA

B1: mAb12433 (antibody, human IgG1, kappa, V domains shown)
VH: QVQLVQSGAEVKKPGESLKISCKGSGYSFTNYYIHWVRQMPGKGLEWMGAIYPDNSDTTYSPSFQGQVTISADKSISTAYLQWSSLKASDTAMYYCARGADIWGQGTLVTVSS
VL: DIQMTQSPSSLSASVGDRVTITCRASQDIDPYLSNWYQQKPGKAPKLLIYDASNLQSGVPSRFSGSGSGTDFTLTISSLQPEDFATYYCQQTTSHPYTFGQGTKVEIKR
notes: HuCAL human IgG1
With B1 the Kd (Human FGFR2 IIIb D1-3 [1]) was 5.6 nM, the binding result (FGFR2 D2-D3 Construct) was “binds” and the Kd (Mouse FGFR2 IIIb D1-3 [2]) was 2.2 nM. The Kd (Rat FGFR2 IIIb D1-3 [3]) was 3.7 nM, the Kd [4] was 1.7 nM and the Kd (Human FGFR2 IIIb D1-3 [5]) was 5.6 nM. The Kd (Mouse FGFR2 IIIb D1-3 [6]) was 8 nM, the Kd (Rat FGFR2 IIIb D1-3 [7]) was 12 nM and the Kd [8] was 12 nM. For the same binder, the Kd (Human FGFR2 IIIb D1-3 [9]) was 5.6 nM.

From US20140308201A1 (Novartis, published 2014)
